Results from patent US20160264960A1 (Chugai, published 2016).

How the values were obtained:
[1] = molecular target: T1, soluble human plexin A1 (human, UniProt Q9UIW2 27-1244); assay: biolayer interferometry (Octet RED384), antibody on Protein G biosensor, soluble human plexin A1 in solution; antigen concentration not given [d]
T1 construct: also called hPlexin A1; human Plexin A1 extracellular region
Procedure: (§1) Each antibody (PANH-2_52, PANH-2_68, and PANH-3_10) obtained in the paragraph (4-1) or an anti-human IL-6R antibody PF1 antibody was evaluated for its binding activity against soluble human plexin A1 and soluble human IL-6R using Octet RED384 (forteBIO). The binding evaluation was conducted using HBS-EP+Buffer (GE Healthcare Japan Corp.) as a buffer.
(§2) After binding of the antibody to Protein G Biosensors (forteBIO), soluble human plexin A1 or soluble human IL-6R was allowed to interact with the antibody on the biosensor through contact therebetween for 120 seconds, and subsequently contacted with the buffer for 120 seconds to measure the antibody-antigen interaction. Then, the biosensor was regenerated through contact with 10 mmol/L glycine-HCl (pH 1.5). The measurement was conducted at 30° C.

[2] = molecular target: T2, mouse IgA (mouse, UniProt P01878 114-344); assay: biolayer interferometry (Octet RED384), antibody on Protein G biosensor, mouse IgA in solution; antigen concentration not given [c]
T2 sequence (looked up): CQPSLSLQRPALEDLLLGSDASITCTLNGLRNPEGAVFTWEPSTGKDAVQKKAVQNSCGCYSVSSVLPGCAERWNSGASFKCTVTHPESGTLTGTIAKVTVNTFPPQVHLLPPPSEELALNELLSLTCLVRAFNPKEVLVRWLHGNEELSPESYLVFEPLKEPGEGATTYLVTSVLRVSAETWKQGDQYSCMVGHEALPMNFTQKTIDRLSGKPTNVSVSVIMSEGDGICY
Procedure: (§3) Each antibody (mIANH-2_27 and mIANH-3_79) obtained in the paragraph (4-1) or a PF1 antibody was evaluated for its binding activity against mouse IgA or soluble human IL-6R using Octet RED384 (forteBIO). The binding evaluation was conducted using HBS-EP+Buffer (GE Healthcare Japan Corp.) as a buffer.
as §2, with “mouse IgA” for “soluble human plexin A1”

[3] = molecular target: T3, soluble human IL-6R (human, UniProt P08887 20-357); assay: biolayer interferometry (Octet RED384), antibody on Protein G biosensor, soluble human IL-6R in solution, 120 s association and 120 s dissociation [d]
T3 construct: Analyte in the Octet experiments; also called hIL-6R; soluble hIL-6R
T3 sequence: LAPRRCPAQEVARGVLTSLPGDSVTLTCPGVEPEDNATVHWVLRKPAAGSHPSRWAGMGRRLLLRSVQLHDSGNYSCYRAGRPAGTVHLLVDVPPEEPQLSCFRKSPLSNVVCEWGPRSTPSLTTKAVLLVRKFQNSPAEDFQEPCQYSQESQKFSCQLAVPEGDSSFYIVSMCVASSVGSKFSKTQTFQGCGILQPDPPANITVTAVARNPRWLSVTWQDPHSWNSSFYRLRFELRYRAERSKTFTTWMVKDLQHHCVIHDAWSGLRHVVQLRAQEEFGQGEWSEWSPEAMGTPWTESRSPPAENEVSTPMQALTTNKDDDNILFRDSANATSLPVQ
Procedure: as §1, §2

[4] = molecular target: T3, soluble human IL-6R; assay: biolayer interferometry (Octet RED384), antibody on Protein G biosensor, soluble human IL-6R in solution; antigen concentration not given [a]
Procedure: as §3
as §2, with “mouse IgA” for “soluble human plexin A1”

[5] = molecular target: T1, soluble human plexin A1; assay: biolayer interferometry (Octet RED384), antibody on Protein G biosensor, soluble human plexin A1 in solution, 120 s association and 120 s dissociation [a]
Procedure: as §1, §2

[6] = molecular target: T3, soluble human IL-6R; assay: biolayer interferometry (Octet RED384), antibody on Protein G biosensor, soluble human IL-6R in solution; antigen concentration not given [a]; remark: listed apart in the source
Procedure: as §1, §2

[7] = molecular target: T3, soluble human IL-6R; assay: biolayer interferometry (Octet RED384), antibody on Protein G biosensor, soluble human IL-6R in solution; antigen concentration not given [b]
Procedure: as §3
as §2, with “mouse IgA” for “soluble human plexin A1”

[8] = molecular target: T3, soluble human IL-6R; assay: as above; remark: listed apart in the source
Procedure: as §1, §2

[9] = molecular target: T1, soluble human plexin A1; assay: biolayer interferometry (Octet RED384), antibody on Protein G biosensor, soluble human plexin A1 in solution, 120 s association and 120 s dissociation [b]
Procedure: as §1, §2

[10] = molecular target: T1, soluble human plexin A1; assay: biolayer interferometry (Octet RED384), antibody on Protein G biosensor, soluble human plexin A1 in solution, 120 s association and 120 s dissociation [c]
Procedure: as §1, §2

[11] = molecular target: T3, soluble human IL-6R; assay: biolayer interferometry (Octet RED384), antibody on Protein G biosensor, soluble human IL-6R in solution; antigen concentration not given [c]
Procedure: as §1, §2

[12] = molecular target: T4, human plexin A1 protein sema domain (from glutamic acid at position 28 to serine at position 514) tagged at … (human, UniProt Q9UIW2 28-514); assay: SPR, Biacore T200; antibody held by Protein A/G on CM4 chip, sema domain as analyte
T4 construct: also called human plexin A1 sema domain
T4 sequence: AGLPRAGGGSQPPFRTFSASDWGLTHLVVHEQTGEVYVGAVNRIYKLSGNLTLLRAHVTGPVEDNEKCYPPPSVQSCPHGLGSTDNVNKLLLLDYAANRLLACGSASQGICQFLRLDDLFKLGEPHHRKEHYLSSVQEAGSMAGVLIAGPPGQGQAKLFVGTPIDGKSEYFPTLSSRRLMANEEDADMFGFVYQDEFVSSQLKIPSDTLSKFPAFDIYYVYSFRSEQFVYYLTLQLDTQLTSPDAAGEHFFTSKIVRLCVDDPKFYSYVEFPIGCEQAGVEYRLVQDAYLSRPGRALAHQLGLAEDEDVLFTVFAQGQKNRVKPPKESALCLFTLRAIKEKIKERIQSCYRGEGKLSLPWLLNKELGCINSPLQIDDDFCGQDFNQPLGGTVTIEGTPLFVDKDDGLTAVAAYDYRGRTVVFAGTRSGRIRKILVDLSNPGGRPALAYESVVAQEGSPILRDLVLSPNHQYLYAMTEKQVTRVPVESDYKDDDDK
Procedure: (§4) Each antibody obtained in the paragraph (10-1) was evaluated for its binding activity against the antigen by surface plasmon resonance (SPR) analysis.
(§5) In the SPR analysis, the antibody was analyzed using Biacore T200 (GE Healthcare Japan Corp.). The anti-human plexin A1 antibody was immobilized onto the surface of Sensor Chip CM4 using Recombinant Protein A/G (Thermo Fisher Scientific Inc.) and Amine Coupling Kit (GE Healthcare Japan Corp.). The antigen used was a human plexin A1 protein sema domain (from glutamic acid at position 28 to serine at position 514) tagged at the C terminus of the protein with FLAG tag. The antigen was prepared as follows: an expression vector carrying a cDNA corresponding to the human plexin A1 sema domain was transferred to FreeStyle 293 cells. After culture, the obtained culture solution was passed through an anti-FLAG-M2 antibody-immobilized affinity column. A fraction eluted with the FALG peptide was purified by gel filtration. The obtained antigen was serially diluted with 20 mM ACES, 150 mM NaCl, 0.05% polysorbate 20, and 1.2 mM CaCl₂ (pH 7.4) and added to the sensor chip at a flow rate of 30 μL/min. In this assay system, the dissociation constant (KD) between the human plexin A1 protein and the anti-human plexin A1 antibody was calculated using data analysis software (BIA T200 Evaluation software ver. 2).

[13] = molecular target: T4, human plexin A1 protein sema domain …; assay: SPR, Biacore T200; KD against parent antibody hPANLB2-3_342
Procedure: as §4, §5

T1 sequence (Q9UIW2 other isoform, or with tags, fused parts or gaps): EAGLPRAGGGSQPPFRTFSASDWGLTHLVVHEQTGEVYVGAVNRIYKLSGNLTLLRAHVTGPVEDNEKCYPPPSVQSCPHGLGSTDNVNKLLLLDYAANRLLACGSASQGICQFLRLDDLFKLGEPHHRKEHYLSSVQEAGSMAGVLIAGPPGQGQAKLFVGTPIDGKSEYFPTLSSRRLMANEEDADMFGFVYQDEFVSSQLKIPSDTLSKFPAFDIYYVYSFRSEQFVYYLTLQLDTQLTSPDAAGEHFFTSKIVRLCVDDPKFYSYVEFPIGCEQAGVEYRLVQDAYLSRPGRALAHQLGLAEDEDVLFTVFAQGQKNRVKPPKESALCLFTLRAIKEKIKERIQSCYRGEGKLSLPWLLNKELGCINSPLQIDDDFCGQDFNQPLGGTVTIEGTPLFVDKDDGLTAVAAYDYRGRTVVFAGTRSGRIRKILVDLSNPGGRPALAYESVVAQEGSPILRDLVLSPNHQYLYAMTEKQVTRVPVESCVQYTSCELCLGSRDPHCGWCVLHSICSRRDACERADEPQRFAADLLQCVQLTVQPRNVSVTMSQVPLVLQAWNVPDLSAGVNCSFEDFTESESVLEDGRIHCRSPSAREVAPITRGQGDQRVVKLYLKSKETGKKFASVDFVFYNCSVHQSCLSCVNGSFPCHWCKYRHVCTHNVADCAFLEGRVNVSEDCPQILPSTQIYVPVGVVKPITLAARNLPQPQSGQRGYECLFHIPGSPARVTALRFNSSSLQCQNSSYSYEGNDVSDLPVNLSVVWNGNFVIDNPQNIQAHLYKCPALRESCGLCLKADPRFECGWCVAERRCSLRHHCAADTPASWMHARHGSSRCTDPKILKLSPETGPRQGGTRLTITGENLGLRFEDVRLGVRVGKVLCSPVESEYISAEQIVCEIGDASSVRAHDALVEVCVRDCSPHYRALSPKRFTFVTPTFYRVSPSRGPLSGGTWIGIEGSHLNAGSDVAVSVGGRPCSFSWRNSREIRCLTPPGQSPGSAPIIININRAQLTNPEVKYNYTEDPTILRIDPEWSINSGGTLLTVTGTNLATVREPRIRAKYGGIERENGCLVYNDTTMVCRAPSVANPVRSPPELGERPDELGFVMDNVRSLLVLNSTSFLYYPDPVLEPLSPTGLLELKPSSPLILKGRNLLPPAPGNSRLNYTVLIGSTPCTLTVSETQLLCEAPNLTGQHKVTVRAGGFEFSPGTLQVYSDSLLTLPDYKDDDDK

B1: PF1 (antibody, human IgG1, kappa, V domains shown)
VH: QVQLQESGPGLVKPSETLSLTCAVSGYSISDDHAWSWVRQPPGEGLEWIGYISYSGITNYNPSLKGRVTISRDTSKNQFSLKLSSVTAADTAAYYCARVLARITAMDYWGEGTLVTVSS
VL: DIQMTQSPSSLSASVGDSVTITCQASQDISSYLNWYQQKPGKAPELLIYYGSELHSGVPSRFSGSGSGTDFTFTISSLEAEDAATYYCGQGNRLPYTFGQGTKVEIER
notes: also called PF1 antibody; anti-IL-6R antibody PF1 antibody
- binding result [1]: no binding
- binding result [2]: no binding
- binding result [3]: binds

B2: mIANH-2_27 (antibody, human IgG1, kappa, V domains shown)
VH: EVQLVQSGAEVKKPGASVKVSCKASGYTFTGYYIHWVRQAPGQGLEWMGRINPNSGGTNYAQKFQGRVTMTRDTSISTAYMQLSRLRSDDTAVYYCARDNSGWGGFDAFDIWGQGTMVTVSS
VL: B1 VL
notes: IgG with the PF1 L chain
- binding result [4]: no binding

B3: PANH-2_52 (antibody, human IgG1, kappa, V domains shown)
VH: EVQLVQSGGGVVQPGRSLRLSCAASGFTFSSYAMHWVRQAPGKGLEWVAVISYDGSNKYYADSVKGRFTISRDNSKNTLYLQMNSLRAEDTAVYYCARPPMEWLFWDAFDIWGQGTMVTVSS
VL: B1 VL
notes: IgG with the PF1 L chain
- binding result [5]: binds
- binding result [6]: no binding

B4: mIANH-3_79 (antibody, human IgG1, kappa, V domains shown)
VH: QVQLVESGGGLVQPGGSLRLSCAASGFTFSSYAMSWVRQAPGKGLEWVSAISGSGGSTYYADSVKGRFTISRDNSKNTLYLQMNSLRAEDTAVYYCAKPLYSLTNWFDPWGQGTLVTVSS
VL: B1 VL
notes: IgG with the PF1 L chain
- binding result [7]: no binding

B5: PANH-2_68 (antibody, human IgG1, kappa, V domains shown)
VH: QVQLVQSGAEVKKPGASVKVSCKASGYTFTSYGISWVRQAPGQGLEWMGWISAYNGNTNYAQKLQGRVTMTTDTSTSTAYMELRSLRSDDTAVYYCARAHTKDIWGQGTMVTVSS
VL: B1 VL
notes: IgG with the PF1 L chain
- binding result [8]: no binding
- binding result [9]: binds

B6: PANH-3_10 (antibody, human IgG1, kappa, V domains shown)
VH: QVQLQESGPGLVKPSETLSLTCTVSGGSISSSSYYWGWIRQPPGKGLEWIGSIYYSGSTYYNPSLKSRVTISVDTSKNQFSLKLSSVTAADTAVYYCARDPVQLEHSRYYYYYGMDVWGQGTTVTVSS
VL: B1 VL
notes: IgG with the PF1 L chain
- binding result [10]: binds
- binding result [11]: no binding

B7: PLR2H342#009 (antibody, human IgG1, lambda, V domains shown)
VH: EVQLVQSGAEVKKPGASVKVSCKASGYTFTSYGISWVRQAPGQGLEWMGWISAYNGNTNYAQKLQGRVTMTTDTSTSTAYMELRSLRSDDTAVYYCARHAGYYYGMDVWGKGTMVTVSS
VL: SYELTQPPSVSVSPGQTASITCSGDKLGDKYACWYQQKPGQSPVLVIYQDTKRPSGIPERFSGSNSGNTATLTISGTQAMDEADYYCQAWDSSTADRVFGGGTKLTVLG
notes: IgG from the 342H-NL library
- Kd [12]: 1.82 nM
- Relative KD improvement [13]: 19 fold
